Our source for the protein production values is a protein production outcome set (Wang et al. 2014).

This data set in a line: label from the status in PepcDB records.
On to “MIRNLYNKIKNCKLKIAAIILLIFLIVTGYIYYSRYFYVLRSPQRVKEFILSYGKFGFFAFFVMQMLQVVAFFIPGEIIQIAGGYIFGTFWGTVISLLGITAGSAVAFYLSNKLGRPFVKKISGKQNISFFEKLIKNGEIKYVITLIYLVPGLPKDILAYVCGITDLSLKDFIIYSTIGRFPGIFISAYFGNTITHGNIKMMVIIAVISVVLFGLGVFKGKYLLTKISSIRSKKQK”, for which the protein production entry is on record as “failed”.
As for “MSSPNPEDVPRRPEPEPSSSNKKKKKRKWLRQEASIQALTRAGHGALQAGQNHEALNNFQRAFLLASKAPQTRDTPVLQACAFNLGAAYVETGDPARGLELLLRAHPEEKAQGRRHGDQCFNVALAYHALGELPQALAWYHRALGHYQPQGDQGEAWAKMGACYQALGQPELAAHCLQEASQAYAQERQLRAAALALGAAAGCMLKSGRHRVGEVVQVLEKSRRLAERSTERRLLGHLYNDLGLGYSQLQLFPLAVEAFLQALPLCWVPGEQATVLRNLGMAHNALGNYQEAREFHQKAADLHGSVGQRWEQGRSFGSLAFALSQLGDHKAARDNYLHALQAARDSGDMKGQWQACEGLGAAAARLGQYDQALKYYKEALAQCQKEPDSVRERLVAKLADTVRTRLAQVGLVQTHTLTSAPGRLQAPGGASQAEGTPAKAGSSTAGVQHRSSSGWEDEEFEEGHQKKKEERSANVPVRAGPGRPELCFLPGTVNHSHHLASSCPTFTKHTPCRGTVLGKASIYSPGPRAHLPFVGPGPPRAEYPSILVPNGPQANRSSRWPRESLSRSRQRRPMESGICTIV”, the protein production result is “failed”.
For “MKRKGVGFSLPVTVVMLVIGFIYFASVFTFIDRWFSLTSSPGIANAAAFTALALMCIYNYSIAVFRDPGRVPLNYMPDVEDPESPVHEIKRKGGDLRYCQKCSHFKPPRAHHCRVCKRCVLRMDHHCIWINNCVGHTNYKVFFVFVVYAVTACVYSLVLLVGSLTVEPQDEEEEMGSYLRTIYVISAFLLIPLSIALGVLLGWHIYLILQNKTTIEVYHEGVRAMWLAEKGGQVYKHPYDIGAYENLTLILGPNILSWLCPTSRHIGSGVRFRTAFDSIPDSSETKH” the value was “failed”; for “MTDMNPDIEKDQTSDEVTVETTSVFRADFLSELDAPAQAGTESAVSGVEGLPPGSALLVVKRGPNAGSRFLLDQAITSAGRHPDSDIFLDDVTVSRRHAEFRLENNEFNVVDVGSLNGTYVNREPVDSAVLANGDEVQIGKFRLVFLTGPKQGEDDGSTGGP”, “failed”; for “MYHVTVGISEKEYDAFAIASSQTNLLHSSKWAQVKSNWQNERLGFYKDDQLVAVASILIKSLPLGFTMLYIPRGPIMDYSNKELVNFVLKTLKNFGRKKRAVFAKFDPALLLRQYHLKEENVAEEIDESRQAIDNLKSAGAQWIGPTKAISETIQPRFQANIYTKANIEENFPKHTKRLIKDAKHRGVQIYRANIDDLPKFATVVALTENRKGVALRNENYFHQLMTIYGEDAYLYLAKVNLPKRLAQFKEQLLQIQKDLSETPSHQKSRLTRLNQQEASVKQYILEFQEFSKKYPDEPVIAGILSIRFGNVLEMLYAGMDDSFRKFYPQYLLNARVFEDAFKNDIVSANLGGVEGSLNDGLTKFKSNFNPMFEEYIGEFNLAINPLLYKLANLAYTIRKKQRHSH”, “failed”.
As for “MSKPEFIARQGRKPTGWLGHIVARVMARETRPENDRALSFLDLADGDSLIDIGCGHGETLFQADRIVRLSGSVGVDFSEVMLKRARARNRDAVWDTRMAFHCADTAALPFPDKRFGKALSVHTIYFWPNPAAHLAEAFRVLRRGGRFLFCYRSTADRRAVEEFPDTVYRFPSVQEVEEKLKLVGFLGPETTTEDIKGRLTHWSIAEKPLEHHHHHH”, the protein production result was “not failed”.
Take “MAAKSLVDIAYESDSSSDSSDEGDVPCLPKDEVNERKLQNLQRKAFYNLLQTFAFENSTMSNKRTEIIGKLMNEWGIANETHISFADQIQKKLLTLKQTKHSGVKETQIPATPLTNTATPSTFFVPKPVKSWGSVNPESLIGKWVSIRLPDKAKFTEYIIKAYDAEKEMHSLLTETSNPMEVDCIDPFRWIDIRDISPNDIMWEGGQKPNFAAPNQSAAATGQ”: the protein production entry is “failed”.
The value for “MSEPLHALARQLEQAIRASEPFQQLKRAYEDVRRDETAYRMFANVRDIQLRLHEKQMRGAAILPDEIEQAQKAMALAQQNEKLARLMALEQQMSITIAEVQQIAMKPLEELHRSFMEGR” was “not failed”.
Regarding “MPTERPTTTAPVSLRERRRTAAAREILDAAEQHIGEHGPAALSLRAVARGLGMTVQALYHYFPNRDALVTALITKAYGELSDVLQAAADSVRADPATPRPVAVAEAYRGWGVARPEHFQLLYGTPLRYYAAPAEGPTTQAVRRMGAIFQRELFAGFTPAQLAAAEVPALSPSYREHLEQLPMHAQGDLPPAAASLFLSAWGHVHGLVVLEVFGHTAFLGDHQAEVFRTSVRMMLEDIHRRIPAA”, the protein production entry is given as “not failed”.
Turning to “MKLIIAIVQDKDSNRLSSQFIEANVRATKLSTTGGFLRSGNTTFMIGIDDDRVDEVLAMIKETSHAREQFMTPPVNLDVTMDGAAAYPVEVQVGGATVFVLPIEQFHQF”, the protein production entry was “failed”.
The value for “MGVFDKFLDIMKLNDDEYDDDDFYDDDFEDDDFDEKPHRSIFGNKKSRSDDFDDFDMDEDKHLAPSSGNKVTPMRQPAARRGVNMEVCVVKPTSVDDSREITETLLAGRTVILNLEGMDLEIAQRIIDFISGATFAISGNLQKISNYIFLVTPTNVDILEHHHHHH” was “not failed”; that for “MANKEKLPWDLEEEILSRVPPTSLDRFKTVCKRWNALFNDKTFINNHKMTFQFVLSTRSKIYSVSVNPKVEVRELTLNNPGLKAQRHKNLFATSGLLLCDVGNGAVVWNPWLKQSRCIKLEVNEPSLDFLGIGYDNNKRVEEIVYKTLSVYMKDLGSQYTWKIHDFASDTWIDQEIEKTKYSRRITEGSVTIRLTNLSVVSLNGKFFKFCDLPSGKNRRRDALALRVFREDRFSLLRQCHVTKKIKIWVTKNKIDNRYGGDVKWMSFMEVSIPTMPDLEHPKFNSQPSYFIDDKRLVICSCDETGRAWIYVVGGNKLVSKTQLDSVVDPWPLHCTYFPSLVLVPGGQREEAELQEAKNLHVTTELYVPGKTKSSIKLHYG” was “failed”; that for “MSSAIRKAAKGGQCTPNIAGVCNDNPETVVLCRFPGETHGAGLKSGGLGAGFGCGCRRGAIDGRGAGLSREDKEFYMRRSQLRTIRRLEALGVVGVKGRLK” was “failed”.
Turning to “MSTSPADTARYNRFVADLFGMMAYGELSAFERFSADARYSPTLHDRAVLGRIAVVEFRHYELVSARLEAMGIDAEDAMLPFQAAVDYFHSRTRPADWYESLMKAYVIDTVSADFYRAISRYVDAGTRDVIEQIQASDETTEVLRERLRSALADDPRLASRLALWGRRLLGEALTQAQRVSYEHAFLGSLIGGEDSAAAKELVSGLIAGLAEKHSKRMTQLGLTG”, the protein production result is listed as “not failed”.
As for “MWLMSHDMLAIIWFGLWGVIWTVYFILDGYALGNGMIFPFVTKDRQERNQLQEAIGPFWGGNEVWLITAGGATFAAFPVTYANMFSYLYTPLFLVLLALFARAAGLEFMHKDDSPIWQKTCKWAFAIGSFLIAFLFGVTFANLYYGLQIGKNGYEGNLLSLLNHYGILGGLFFTAIFVVSGALWVMIKTTGEVSDRAYKIARPFSMAAAIILAIFYVATANRTNLFQNFTEYPVLFILPVLAMLMSVLALIMVYKHKIGLAFTFVCLTIAMFMTTGFAGMFPRMLPSRINDAYSTTLYNAAGSQLNLKIMFFVAMVMVPIVIGYQLWSYSIFKNKIHKDSAKGYH”, the protein production result was “failed”.
“MFYHDFRTMLIRLRAQFIKELLCILRDPRNRVVVFVPPLMQLLIFSYAATMEVRNLDIAVYNQDTGRAAQELVWHLEAARFIAQVHHVHSNTALREQLVQGKVIAAIAIPADFSRTVAVSGSGHAQVLVDGRRSNSGQIVVGYLSSIARDIRFTADTAPIPETSVTVRHWFNPNLVYLWFMVPGLTGTLAFFSALMITALSIARERELGTFDQLLVSPASTLEIILSKSLPALVISSLLALLMITLAIWFFRIPFTGSFGLLLIGLVLFILSAVGIGLVISAISMTQQQAILGGFVIGVPTVLISGFATPVENMPLLLQWLAQAIPLTHFLIIIEGCFLKALPPRDVLANLWPLAVIAFTMLPIAMIFARSRLQ”: the protein production entry is recorded as “failed”.
For “MFMREIELRGHIIDSLILPKVFDKILDMGGDYKVLEFEIGKRKTDPSYAKILVIGRDERHVDEILNELRDLGAEIPEIEEVELQPAEKDMVLPEGFYSTTNHKTFIRFKGKWIEVENQKMDGAIVVYPDEMRAEVKTIRNIKKGDLVVVGHKGVRVIPPEKPREGGGLFEFMKSDASSEKPKETIIRRIAKEMYEIREKYRKTGKGGIVVVGGPAIIHTGAGWALAKLIRMGYVQALFAGNALATHDIESVLYGTSLGVDLKTGKSVPGGHSHHLRAINTIMRAGSIKDAVEQGILKEGVMYECIKNNIPYVLAGSIRDDGPLPDVITDVVKAQEKMRELLKGKDMVLMLSTMLHSIATGNLLPSWVKTICVDINPAVVTKLMDRGTSQALGIVTDVGVFLPMLVEELEKLEKEKEKSEKREELEHHHHHH” the value was “not failed”.
“MPTYPPSLLQSLLQYIPERELAWDCGAGSGQLTHMLASYFDQVVGTDISQTQLSHAEYYDNISYQLQPAENTTFPDHCFDLITVAQAIHWFDFEAFYAEVRRTIKPSGILAVVGYGLIHVDDLEINAKVQHLYHQTLNGFWDAERHYVDELYQTIPFPFDEIEMPAFQIEAQWTLQQLLQYLNTWSAVQHYILEKNLDPVQQLLSKGLEHHHHHH”: the protein production entry is given as “failed”.
For “MRVLETIVALREYRKSLEESVGFVPTMGALHKGHQSLIERSLKENSHTIVSVFVNPTQFGANEDFNAYPRPLEKDLALCEKLGVNAVFVPKIGEMYPYEAEQRLKLYAPKFLSSSLEGAMRKGHFDGVVQIVLKMFHLVNPTRAYFGKKDAQQLLIIEHLVKDLLLDIEIAPCEIVRDDDNLALSSRNVYLNATQRKQALAIPKALEKIQQAIDKGEKACEKLKKLGLEILETLEVDYLECCNHKLEPLTIIEPTNTLILVAARVGKTRLLDNLWV” the value was “failed”; for “MRPEIAVLDIQGQYRVYTEFYRADAAENTIILINGSLATTASFAQTVRNLHPQFNVVLFDQPYSGKSKPHNRQERLISKETEAHILLELIEHFQADHVMSFSWGGASTLLALAHQPRYVKKAVVSSFSPVINEPMRDYLDRGCQYLAACDRYQVGNLVNDTIGKHLPSLFKRFNYRHVSSLDSHEYAQMHFHINQVLEHDLERALQGARNINIPVLFINGERDEYTTVEDARQFSKHVGRSQFSVIRDAGHFLDMENKTACENTRNVMLGFLK”, “failed”.
On to “MSYTPMSDLGQQGLFDITRTLLQQPDLASLCEALSQLVKRSALADNAAIVLWQAQTQRASYYASREKDTPIKYEDETVLAHGPVRSILSRPDTLHCSYEEFCETWPQLAAGGLYPKFGHYCLMPLAAGGHIFGGCEFIRYDER”, for which the protein production entry is recorded as “failed”.
As for “MDVLRKQEILPQLPKLDKYERKSSCGNTWQGSLSETESWREKLRYLTDYRLERGRFDKDTDFLSTFQPKQNEVQRNNISFEFDSDKSSRKTDFPGILTERPVLLRTNQEPDVYGARLRELSAANAEGERNVFHEDKTSSSQSKLPSFEIFSAIGQKEDIPGYQGGCLRGETVLKTAAVASPQIADRNSRVSFHDGGILQPINSPTGFSQPRNDNNSYKTSSSEENLYSIRQLPWSEYARTRNYDCVEPSLGVSISDEQRRFGENALCMSVSQPMYEEPHPLVTLRSTEGLTQEQKQLRR”, the protein production result is recorded as “failed”.
